Measurements reported in patent US20190185564A1 (AGENCY FOR SCIENCE TECHNOLOGY AND RESEARCH, published 2019).
Where two headings read alike, the source gives them in different places.

Tests used:
Mouse Tim-3-Fc [1] = biological target: T1, Mouse Tim-3-Fc (mouse, UniProt Q8VIM0); experiment: ELISA on coated mouse TIM-3-Fc, absorbance 450-670 nm
T1 construct: coupled to human Fc; ELISA coating antigen for the cross-reactivity test; also called mouse TIM-3 coupled to human Fc
Description: (§1) After a small-scale induction in HB2151 cells, Fab antibodies were screened by ELISA. […] After extensive washes in PBS Tween-20, Fab-containing supernatants from induction plates were transferred into the ELISA plates in the presence of 7% milk in PBS. After 90 minutes at room temperature under agitation and extensive washes, a goat anti-human Fab antibody coupled to HRP was added. One hour later, plates were washed and TMB substrate added. The reaction was stopped with 1M HCl and optical density measured at 450 nm with a reference at 670 nm. Antibodies giving an absorbance >0.1 were selected as positive.

Mouse Tim-3-Fc [2] = biological target: T1, Mouse Tim-3-Fc; experiment: as above; remark: listed apart in the source
Description: as §1

B1: anti-TIM-3 antibody clone G7 (antibody, V domains shown)
VH: EVQLVQSGAEVKKPGASVKVSCKASGYTFTSYYMHWVRQAPGQGLEWMGIINPSGGSTSYAQKFQGRVTMTRDTSTSTVYMELSSLRSEDTAVYYCARDQYSSGWYYYGMDVWGQGTTVTVSS
VL: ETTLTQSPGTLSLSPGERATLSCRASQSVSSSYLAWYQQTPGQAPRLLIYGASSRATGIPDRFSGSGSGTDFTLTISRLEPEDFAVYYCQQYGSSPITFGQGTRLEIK
notes: Screened as Fab, and SPR was recorded for 'each candidate Fab'
Mouse Tim-3-Fc [1]
  binding result: no binding

B2: anti-TIM-3 antibody clone G9 (antibody, V domains shown)
VH: QVQLQQSGAEVKKPGASVKVSCKASGYTFTSYYMHWVRQAPGQGLEWMGIINPSGGSTSYAQKFQGRVTMTRDTSTSTVYMELSSLRSEDTAVYYCARDLYSYGFYYYGMDVWGQGTTVTVSS
VL: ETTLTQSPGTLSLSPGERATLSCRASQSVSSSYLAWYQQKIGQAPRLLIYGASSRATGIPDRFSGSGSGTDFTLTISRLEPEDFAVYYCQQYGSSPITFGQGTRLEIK
notes: as for B1
Mouse Tim-3-Fc [1]
  binding result: no binding

B3: anti-TIM-3 antibody clone B10 (antibody, V domains shown)
VH: QVQLQESGPGLVKASETLSLTCTVSGGSIGSSDYYWGWIRQPPGKGLEWIGSIYYSGSTYYNPSLKSRVTMSVDTPNNQFSLKLSSVTAADTAVYYCARGEHRGEFDYWGQGTLVTVSS
VL: EIVLTQSPATLSFSPGERATLSCRASQSVGSYLAWYQQRPGQAPRPLIYDATNRATGIPTRFSGSGSGTDFTLTISSLEPEDFATYYCQHRRTFGRGTKLEIK
notes: as for B1
Mouse Tim-3-Fc [1]
  binding result: no binding

B4: anti-TIM-3 antibody clone A11 (antibody, V domains shown)
VH: QVQLQQWGAGLLKPSETLSLTCAVYGGSFSGYYWSWIRQPPGKGLEWIGEINHSGSTNYNPSLKSRVTISVDTSKNQFSLKLSSVTAADTAVYYCARGYVAGFDYWGQGTLVTVSS
VL: QSVVTQPPSVSAAPGQKVTISCSGSSSNIGNNYVSWYQQLPGTAPKLLIYGNNWRPSGIPDRFSGSKSGTSATLAISGLQTGDEADYYCETWDSSLSAGVFGGGTKLTVL
notes: as for B1
Mouse Tim-3-Fc [2]
  binding result: no binding

B5: anti-TIM-3 antibody clone G6 (antibody, V domains shown)
VH: QVQLQESGPGLVKPSGTLSLTCAVSGGSISSSNWWSWVRQPPGKGLEWIGEIYHSGSTNYNPSLKSRVTISVDKSKNQFSLKLSSVTAADTAVYYCARVVAVAGTVDYWGQGTLVTVSS
VL: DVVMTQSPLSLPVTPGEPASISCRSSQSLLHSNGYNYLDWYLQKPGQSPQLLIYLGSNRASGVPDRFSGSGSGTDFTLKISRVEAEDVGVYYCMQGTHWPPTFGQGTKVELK
notes: as for B1
Mouse Tim-3-Fc [1]
  binding result: no binding

B6: anti-TIM-3 antibody clone A3 (antibody, V domains shown)
VH: QVQLVQSGAEVKKPGASVKVSCKASGYTFTSYYMHWVRQAPGQGLEWMGIINPSGGSTSYAQKFQGRVTMTRDTSTSTVYMELSSLRSEDTAVYYCARSPGVVTALFDYWGQGTLVTVSS
VL: DIQMTQSPSFMSASVGDRVTITCRASQDIGSYLAWYQQKPGKAPKLLIYAASTLQSGVPSRFSGSGSGTDFTLTINSLQPEDFATYYCQQSYSSPPTFGPGTTLEIK
notes: Isolated from a human phage library and screened as Fab; SPR was recorded for 'each candidate Fab'
Mouse Tim-3-Fc [1]
  binding result: no binding
